The values below come from paper PMC5613346 (Biochemistry and Biophysics Reports, 2016).

Test [1] has as its target T1, mouse wtTNF (mouse), P06804.
T1 chain: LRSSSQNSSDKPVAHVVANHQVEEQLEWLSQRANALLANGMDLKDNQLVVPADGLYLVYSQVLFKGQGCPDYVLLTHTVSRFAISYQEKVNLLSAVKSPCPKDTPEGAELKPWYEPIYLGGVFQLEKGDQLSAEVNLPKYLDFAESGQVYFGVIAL
Nature of the test: SEC. To be noted: remark: other sources report otherwise.

The target in the next test is T2, mTNFR2 Fc chimera (mouse, UniProt P25119).
T2 sequence: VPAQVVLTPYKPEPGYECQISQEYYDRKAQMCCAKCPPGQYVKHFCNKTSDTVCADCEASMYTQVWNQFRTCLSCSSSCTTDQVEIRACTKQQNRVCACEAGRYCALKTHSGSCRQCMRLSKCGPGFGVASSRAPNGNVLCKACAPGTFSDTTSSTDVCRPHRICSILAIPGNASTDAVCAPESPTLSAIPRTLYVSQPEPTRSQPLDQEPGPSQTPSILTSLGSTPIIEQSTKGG
Nature of the test: SPR.

Another test addresses T3, mTNFR1 Fc chimera (mouse, UniProt P25118).
T3 sequence: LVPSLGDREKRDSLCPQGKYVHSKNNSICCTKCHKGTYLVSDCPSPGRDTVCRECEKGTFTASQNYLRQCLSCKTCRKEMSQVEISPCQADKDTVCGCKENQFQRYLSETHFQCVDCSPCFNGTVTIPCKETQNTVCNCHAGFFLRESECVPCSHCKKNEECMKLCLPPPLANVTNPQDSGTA
Nature of the test: SPR. Background: In SPR one partner is held on a chip, and binding of the other changes the refractive index at the surface.

B1: mouse wtTNF (ligand)
chain: LRSSSQNSSDKPVAHVVANHQVEEQLEWLSQRANALLANGMDLKDNQLVVPADGLYLVYSQVLFKGQGCPDYVLLTHTVSRFAISYQEKVNLLSAVKSPCPKDTPEGAELKPWYEPIYLGGVFQLEKGDQLSAEVNLPKYLDFAESGQVYFGVIAL
As to B1, in test [1], the stoichiometry N – broadly, a count of units in the complex or per binding partner – came to 3. Besides, in the test with mTNFR2 Fc chimera, the affinity, expressed as Kd, was 10.4 nM; the koff – broadly, the first-order rate constant of dissociation – came to 0.0056 s⁻¹; the kon (in general, a measure of how fast the partners come together) amounted to 537000 M⁻¹ s⁻¹. In the test with mTNFR1 Fc chimera, binding was characterised by a dissociation constant (Kd) of 5.84 nM, the koff amounted to 0.000969 s⁻¹ and the on-rate (kon) was determined as 166000 M⁻¹ s⁻¹.
